Test results from paper PMC2600739 (The Journal of Cell Biology, 2008).

Biological target: the molecule itself
Test: cross-linking

B1: JAM-L–HA (p513-JAM-L-HA vector), wild type (natural protein, human, UniProt Q86YT9 20-394, looked up)
chain: LNDLNVSPPELTVHVGDSALMGCVFQSTEDKCIFKIDWTLSPGEHAKDEYVLYYYSNLSVPIGRFQNRVHLMGDILCNDGSLLLQDVQEADQGTYICEIRLKGESQVFKKAVVLHVLPEEPKELMVHVGGLIQMGCVFQSTEVKHVTKVEWIFSGRRAKEEIVFRYYHKLRMSVEYSQSWGHFQNRVNLVGDIFRNDGSIMLQGVRESDGGNYTCSIHLGNLVFKKTIVLHVSPEEPRTLVTPAALRPLVLGGNQLVIIVGIVCATILLLPVLILIVKKTCGNKSSVNSTVLVKNTKKTNPEIKEKPCHFERCEGEKHIYSPIIVREVIEEEEPSEKSEATYMTMHPVWPSLRSDRNNSLEKKSGGGMPKTQQAF
  stoichiometry N: 2
